The source of these data is the RNAGym collection of RNA variant scans (doi:10.1021/acssynbio.7b00057).

B1: Pistol ribozyme (parent)
chain: GGGUCGUUGUUCCAUAAUCGCGUGGAUAUGGCACGCAAGUUUCUACCGGGCACCGUAAAUGUCCGACUGGAGCCGUUCGGGCGGCUAUAAACAGACCUCAGGCCCGAAGCGUGGCGGCACCUGCCGCCGGUGGUAAAAAAGAUCGGAAGAGCACACGUCU

This data set covers variants of B1. The data set is described as follows: aptazyme ON/OFF ratio, guanine; higher = stronger switching; co-transcriptional cleavage with and without guanine.
With GGGUCGACAGAUCAUAAUCGCGUGGAUAUGGCACGCAAGUUUCUACCGGGCACCGUAAAUGUCCGACUGGAGCCGUUCGGGCGGCUAUAAACAGACCUCAGGCCCGAAGCGUGGCGGCACCUGCCGCCGGUGGUAAAAAAGAUCGGAAGAGCACACGUCU [U7A U8C G9A U10G U11A C12U], the “aptazyme ON/OFF ratio” value stood at 1.04.
As for GGGUCGACAGAACAUAAUCGCGUGGAUAUGGCACGCAAGUUUCUACCGGGCACCGUAAAUGUCCGACUGGAGCCGUUCGGGCGGCUAUAAACAGACCUCAGGCCCGAAGCGUGGCGGCACCUGCCGCCGGUGGUAAAAAAGAUCGGAAGAGCACACGUCU [U7A U8C G9A U10G U11A C12A], the figure is 1.13; as for GGGUCGACAGAGCAUAAUCGCGUGGAUAUGGCACGCAAGUUUCUACCGGGCACCGUAAAUGUCCGACUGGAGCCGUUCGGGCGGCUAUAAACAGACCUCAGGCCCGAAGCGUGGCGGCACCUGCCGCCGGUGGUAAAAAAGAUCGGAAGAGCACACGUCU [U7A U8C G9A U10G U11A C12G], 1.27; as for GGGUCGACAGAAUAUAAUCGCGUGGAUAUGGCACGCAAGUUUCUACCGGGCACCGUAAAUGUCCGACUGGAGCCGUUCGGGCGGCUAUAAACAGACCUCAGGCCCGAAGCGUGGCGGCACCUGCCGCCGGUGGUAAAAAAGAUCGGAAGAGCACACGUCU [U7A U8C G9A U10G U11A C12A C13U], 1.24.
For GGGUCGACAGAAGAUAAUCGCGUGGAUAUGGCACGCAAGUUUCUACCGGGCACCGUAAAUGUCCGACUGGAGCCGUUCGGGCGGCUAUAAACAGACCUCAGGCCCGAAGCGUGGCGGCACCUGCCGCCGGUGGUAAAAAAGAUCGGAAGAGCACACGUCU [U7A U8C G9A U10G U11A C12A C13G], the “aptazyme ON/OFF ratio” value is 1.11.
As for GGGUCGACAGAAAAUAAUCGCGUGGAUAUGGCACGCAAGUUUCUACCGGGCACCGUAAAUGUCCGACUGGAGCCGUUCGGGCGGCUAUAAACAGACCUCAGGCCCGAAGCGUGGCGGCACCUGCCGCCGGUGGUAAAAAAGAUCGGAAGAGCACACGUCU [U7A U8C G9A U10G U11A C12A C13A], the figure is 1.19.
As to GGGUCGACAGACCAUAAUCGCGUGGAUAUGGCACGCAAGUUUCUACCGGGCACCGUAAAUGUCCGACUGGAGCCGUUCGGGCGGCUAUAAACAGACCUCAGGCCCGAAGCGUGGCGGCACCUGCCGCCGGUGGUAAAAAAGAUCGGAAGAGCACACGUCU [U7A U8C G9A U10G U11A], the “aptazyme ON/OFF ratio” value was 1.03.
As for GGGUCGACAGAGUAUAAUCGCGUGGAUAUGGCACGCAAGUUUCUACCGGGCACCGUAAAUGUCCGACUGGAGCCGUUCGGGCGGCUAUAAACAGACCUCAGGCCCGAAGCGUGGCGGCACCUGCCGCCGGUGGUAAAAAAGAUCGGAAGAGCACACGUCU [U7A U8C G9A U10G U11A C12G C13U], the figure is 1.3; as for GGGUCGACAGAGGAUAAUCGCGUGGAUAUGGCACGCAAGUUUCUACCGGGCACCGUAAAUGUCCGACUGGAGCCGUUCGGGCGGCUAUAAACAGACCUCAGGCCCGAAGCGUGGCGGCACCUGCCGCCGGUGGUAAAAAAGAUCGGAAGAGCACACGUCU [U7A U8C G9A U10G U11A C12G C13G], 1.07.
As for GGGUCGACAGAGAAUAAUCGCGUGGAUAUGGCACGCAAGUUUCUACCGGGCACCGUAAAUGUCCGACUGGAGCCGUUCGGGCGGCUAUAAACAGACCUCAGGCCCGAAGCGUGGCGGCACCUGCCGCCGGUGGUAAAAAAGAUCGGAAGAGCACACGUCU [U7A U8C G9A U10G U11A C12G C13A], the figure is 1.11; as for GGGUCGACAGACAAUAAUCGCGUGGAUAUGGCACGCAAGUUUCUACCGGGCACCGUAAAUGUCCGACUGGAGCCGUUCGGGCGGCUAUAAACAGACCUCAGGCCCGAAGCGUGGCGGCACCUGCCGCCGGUGGUAAAAAAGAUCGGAAGAGCACACGUCU [U7A U8C G9A U10G U11A C13A], 1.04; as for GGGUCGACAGACGAUAAUCGCGUGGAUAUGGCACGCAAGUUUCUACCGGGCACCGUAAAUGUCCGACUGGAGCCGUUCGGGCGGCUAUAAACAGACCUCAGGCCCGAAGCGUGGCGGCACCUGCCGCCGGUGGUAAAAAAGAUCGGAAGAGCACACGUCU [U7A U8C G9A U10G U11A C13G], 1.05.
Then GGGUCGACAGAUGAUAAUCGCGUGGAUAUGGCACGCAAGUUUCUACCGGGCACCGUAAAUGUCCGACUGGAGCCGUUCGGGCGGCUAUAAACAGACCUCAGGCCCGAAGCGUGGCGGCACCUGCCGCCGGUGGUAAAAAAGAUCGGAAGAGCACACGUCU [U7A U8C G9A U10G U11A C12U C13G], with 1.14.
For GGGUCGACAGAUAAUAAUCGCGUGGAUAUGGCACGCAAGUUUCUACCGGGCACCGUAAAUGUCCGACUGGAGCCGUUCGGGCGGCUAUAAACAGACCUCAGGCCCGAAGCGUGGCGGCACCUGCCGCCGGUGGUAAAAAAGAUCGGAAGAGCACACGUCU [U7A U8C G9A U10G U11A C12U C13A], the “aptazyme ON/OFF ratio” value was found to be 1.19.
Consider GGGUCGACAGAUUAUAAUCGCGUGGAUAUGGCACGCAAGUUUCUACCGGGCACCGUAAAUGUCCGACUGGAGCCGUUCGGGCGGCUAUAAACAGACCUCAGGCCCGAAGCGUGGCGGCACCUGCCGCCGGUGGUAAAAAAGAUCGGAAGAGCACACGUCU [U7A U8C G9A U10G U11A C12U C13U], for which the “aptazyme ON/OFF ratio” value is 1.11.
For the variant GGGUCGACAGUCAAUAAUCGCGUGGAUAUGGCACGCAAGUUUCUACCGGGCACCGUAAAUGUCCGACUGGAGCCGUUCGGGCGGCUAUAAACAGACCUCAGGCCCGAAGCGUGGCGGCACCUGCCGCCGGUGGUAAAAAAGAUCGGAAGAGCACACGUCU [U7A U8C G9A U10G C13A], the “aptazyme ON/OFF ratio” value amounted to 1.17.
Then GGGUCGACAGUCGAUAAUCGCGUGGAUAUGGCACGCAAGUUUCUACCGGGCACCGUAAAUGUCCGACUGGAGCCGUUCGGGCGGCUAUAAACAGACCUCAGGCCCGAAGCGUGGCGGCACCUGCCGCCGGUGGUAAAAAAGAUCGGAAGAGCACACGUCU [U7A U8C G9A U10G C13G], with 1.2; and GGGUCGACAGUCUAUAAUCGCGUGGAUAUGGCACGCAAGUUUCUACCGGGCACCGUAAAUGUCCGACUGGAGCCGUUCGGGCGGCUAUAAACAGACCUCAGGCCCGAAGCGUGGCGGCACCUGCCGCCGGUGGUAAAAAAGAUCGGAAGAGCACACGUCU [U7A U8C G9A U10G C13U], with 1.09.
